Measured values reported in patent US8017326B2, “Methods of modulating cell death based on the Bit-1/AES regulatory pathway” (Sanford-Burnham Medical Research Institute, priority 2002, dated 2011).

How the values were obtained:
HOP92 cells = experiment: Percentage of GFP-positive detached cells after transfection; format: cell-based; details: 72 hours after transfection; cells express only negligible amounts of AES
Method: To determine if Bit1 and AES are both required for apoptosis induction, HEK 293T, HOP92, and CHO cells were transfected with a GFP (vector), GFP-Bit1, or GFP-AES fusion protein constructs, as indicated in FIG. 3E. The cells were examined 48 hours (HEK 293T and CHO) or 72 hours (HOP92) after transfection, and the percentage of GFP-positive detached cells was measured.
Because the HEK 293T cells lack detectable Bit1 activity, it seemed possible that AES required endogenous Bit1 for the pro-apoptotic activity. An NIH data bank identified HOP92 as a cell line that expresses only negligible amounts of AES. […] CHO cells (FIG. 3E) and HeLa cells, which express both Bit1 and AES, underwent apoptosis upon transfection with either protein.

HEK 293T cells = experiment: Anoikis of attached or detached (poly-HEMA) transfected cells; format: cell-based, human
Method: The role of Bit1 in the tendency of detached cells to undergo apoptosis (anoikis in the strictest sense) was then examined. HEK 293T cells were transfected with C-terminally myc-tagged (mitochondrial) Bit1 or with empty vector, and the cells were cultured either on tissue-culture plates (attached) or on poly-HEMA (detached) for 48 hours. The number of attached cells (10^6) was the same whether the cells were transfected with Bit1 or vector (assigned as 100% in FIG. 8H).
As is shown in FIG. 8H, Bit1 and control transfected cells had the same level of spontaneous apoptosis when grown attached to a culture dish. In striking contrast, detachment induced a higher level of cell death in the Bit1-transfected cells than in the control cells. Given that the transfection efficiency was about 50-70% in the 293T cells, the nearly 4-fold higher apoptosis level of the Bit1-transfected cells translates into more than 5-fold difference in anoikis sensitivity.

[1] = system: Heat Shock 70 kD protein 1A; experiment: Northern blot of ecdysone-induced Bit1 or AES cell lines; format: cell-based, human; details: ecdysone-inducible ECR-293 cell line expressing Bit1 or AES
Method: (§1) To determine whether the Bit1/AES pathway can regulate the transcription of genes other than Bcl-2, two stable cell lines were established expressing either-Bit1 or AES under control of an ecdysone-inducible promoter. To detect genes regulated by Bit1 or AES, probes were prepared from the ecdysone-induced cell lines and used to screen microarrays representing 19,000 human cDNAs. […] Down-regulation of HSP-70 and thymosin 4 in cells induced to express Bit1 or AES was confirmed by Northern blot analysis (see FIG. 7).
(§2) Northern blot analysis was performed as follows. Total RNA (10 μg) was electrophoresed on a 1% agarose-formaldehyde gel and transferred to nitrocellulose filters. The filters were hybridized using the same RNA probes as in the microarray experiments in Rapid-hyb buffer and washed according to the manufacturer's instructions (Amersham-Pharmacia).

Thymosin β-4 = experiment: as above; format: cell-based, human; details: ecdysone-inducible ECR-293 cell line expressing Bit1 or AES
Method: as §1, §2

AES [2] = target: T1, AES (Homo sapiens, UniProt Q08117); experiment: Co-immunoprecipitation of exogenously expressed tagged Bit1 and AES; format: binding; details: immunoprecipitated with anti-flag, immunoblotted with anti-myc
T1 construct: expressed in transfected cells; host or cells: yeast strain AH109
T1 sequence (Q08117 1-197): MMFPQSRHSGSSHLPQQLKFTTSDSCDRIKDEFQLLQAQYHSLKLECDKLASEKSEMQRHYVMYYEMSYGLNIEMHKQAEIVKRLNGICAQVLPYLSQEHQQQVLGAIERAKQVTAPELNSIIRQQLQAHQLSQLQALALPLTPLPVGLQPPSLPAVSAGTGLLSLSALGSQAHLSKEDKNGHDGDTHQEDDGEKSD
Method: Tagged Bit1 and AES were transfected into cells, and cell extracts were immunoprecipitated with anti-flag and immunoblotted with anti-myc. Equal loading of the samples was confirmed by immunoblotting of the whole extract with anti-flag.
Immunoprecipitation and immunoblotting were performed essentially as follows. Cells were transfected with full-length clones for Bit1 and AES, which were obtained by PCR from EST clones using Pfu enzyme (Stratagene; La Jolla, Calif.) and cloned into pCMV-Myc (Clontech) or pCMV-flag (Sigma; St. Louis, Mo.). After 24 to 48 hours, cells were harvested in ice-cold NP-40 lysis buffer (1% NP-40; 20 mM Tris-HCl, pH 7.4; 150 mM NaCl; 10% glycerol, 2 mM sodium vanadate; 1 mM phenylmethyl sulfonylfluoride; 10 μg/ml leupeptin; and 5 μg/ml aprotinin) and lysed at 4° C. for 15 minutes. Lysates were incubated for two hours with the indicated antibodies, and the antibody complexes precipitated with 20 μl of Gammabind (Amersham-Pharmacia; Piscataway, N.J.) for an additional hour. After washing the beads, bound proteins were solubilized in SDS-PAGE sample buffer. Western blot analysis was performed according to standard procedures.

HEK 293 cells = experiment: Annexin V-FITC/propidium iodide staining of Bit1-transfected cells; format: cell-based, human
Method: Bit1 activity was analyzed in the human embryonic kidney cell line, HEK 293. […] Furthermore, HEK 293 cells were transfected with a Bcl-2-promoter-luciferase reporter construct together with increasing amounts of Bit1 expression construct; Bcl-2 transcription was measured by quantifying luciferase […] after 24 hours in culture. In agreement with the CHO cell results, transcription from the Bcl-2 promoter was suppressed in the Bit1-transfected HEK 293 cells (see FIG. 1B). […] In particular, the percentages of annexin V-positive cells (lower right quadrants) are about 1.4% in the control and about 4.7% in the Bit1-transfected cells.
Analysis of cell viability and apoptosis was performed as follows. Cell viability was measured by trypan blue exclusion analysis. Apoptosis was confirmed by DNA fragmentation (Oncogene; La Jolla, Calif.) thirty-six hours after transfection. Annexin-V staining (BD Biosciences Clontech; Palo Alto, Calif.) was performed according to the manufacturer's protocol.

AES [3] = target: T1, AES; experiment: Yeast two-hybrid analysis; format: binding; details: yeast co-transformed with vectors encoding both Bit1 and AES
Method: To explore the mechanism whereby Bit1 induces cell death, a yeast-two-hybrid screening assay was performed to search for binding partners for the Bit1 protein. Full-length Bit1 cDNA was fused to the Gal4 DNA-binding domain in the pGBKT7 vector and used as bait; a human fetal brain cDNA expression library fused to the Gal4 transcriptional activation domain was screened in cells expressing the Bit1/GAL4 DNA-binding domain fusion. Approximately one million transformants from the cDNA library were screened, and about 100 clones positive for both nutritional selection and α-galactosidase activity were obtained.
The ability of AES to interact with Bit1 was confirmed in mammalian cells.
Yeast two-hybrid screening was performed as follows. Full length CGI-147 was cloned in-frame with the Gal4 DNA binding domain in vector pGBKT7 and used to screen a yeast two-hybrid library derived from human fetal brain (Clontech). Yeast strain AH109 was co-transformed with PGBKT7-Bit1, pACT-2-AES or both, and growth selected in SD medium -ADE/-His/-Leu/-Trp and assayed for α-galactosidase activity according to the manufacturer's instructions (Clontech).

B1: Bit1: human Bit1 polypeptide of 179 residues (SEQ ID NO:2), pro-apoptotic, expressed in cells by transfection (protein, listed as Homo sapiens)
chain: MPSKSLVMEYLAHPSTLGLAVGVACGMCLGWSLRVCFGMLPKSKTSKTHTDTESEASILGDSGEYKMILVVRNDLKMGKGKVAAQCSHAAVSAYKQIQRRNPEMLKQWEYCGQPKVVVKAPDEETLIALLAHAKMLGLTVSLIQDAGRTQIAPGSQTVLGIGPGPADLIDKVTGHLKLY
apoptosis induction in HOP92 cells (HOP92 cells): resistant | reduction of the number of surviving cells in detached cultures (HEK 293T cells; C-terminally myc-tagged Bit1, poly-HEMA, 48 hours, 8% in the vector transfection): 30% | apoptosis level of Bit1-transfected cells versus control cells, detached (HEK 293T cells; HEK 293T cells, detached): ~4 fold | difference in anoikis sensitivity (HEK 293T cells; corrected for transfection efficiency of about 50-70%): more than 5 fold | Northern result, suppression of Heat Shock 70 kD protein 1A [1]: 3 fold | Northern result, suppression of Thymosin β-4 (Thymosin β-4): 5 fold | co-immunoprecipitation with AES (AES [2]): confirmed interaction | Late stage apoptosis, both annexin V and propidium iodide uptake (upper right quadrants) (HEK 293 cells; Bit1-transfected HEK 293 cells versus control): 18% | percentages of annexin V-positive cells (lower right quadrants) (HEK 293 cells; Bit1-transfected HEK 293 cells, control about 1.4%): about 4.7% | interaction with AES, growth of co-transformed yeast (AES [3]): yeast grew
